Test in all cases: FRET or BRET
A general note: Bioluminescence resonance energy transfer reports proximity on the nanometre scale.

For one experiment, the target named is mCerulean3-BCL-2 (human) (UniProt P10415).
For experiment [1], the target named is mCerulean3-BCL-XL (human) (UniProt Q07817).
The target in the next experiment is mCerulean3-BCL-W (mouse) (UniProt P70345).
Chain of mCerulean3-BCL-W (mouse) (P70345 whole entry): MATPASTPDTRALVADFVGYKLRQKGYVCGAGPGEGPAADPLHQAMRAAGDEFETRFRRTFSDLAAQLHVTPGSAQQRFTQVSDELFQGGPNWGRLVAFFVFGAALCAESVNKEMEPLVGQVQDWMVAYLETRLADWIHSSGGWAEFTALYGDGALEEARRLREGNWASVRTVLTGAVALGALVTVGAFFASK

Chain of mCerulean3-BCL-2 (human) (P10415 whole entry): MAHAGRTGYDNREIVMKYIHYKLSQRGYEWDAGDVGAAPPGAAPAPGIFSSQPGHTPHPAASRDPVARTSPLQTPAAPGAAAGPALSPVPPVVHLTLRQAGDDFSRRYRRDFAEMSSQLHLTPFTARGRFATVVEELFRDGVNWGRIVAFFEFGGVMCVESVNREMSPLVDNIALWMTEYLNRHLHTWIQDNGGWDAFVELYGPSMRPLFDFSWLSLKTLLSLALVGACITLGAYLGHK
Chain of mCerulean3-BCL-XL (human) (Q07817 whole entry): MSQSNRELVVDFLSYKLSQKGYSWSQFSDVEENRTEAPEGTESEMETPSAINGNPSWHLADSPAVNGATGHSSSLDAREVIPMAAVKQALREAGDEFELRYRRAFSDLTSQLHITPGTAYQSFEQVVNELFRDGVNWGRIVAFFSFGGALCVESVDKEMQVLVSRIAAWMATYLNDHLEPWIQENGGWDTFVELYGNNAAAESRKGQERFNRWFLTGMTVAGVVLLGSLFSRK

Consider Venus-tBID (natural protein), for which the Kd (in general, the concentration at which binding is half-saturated) with mCerulean3-BCL-2 (human) worked out at 3 µM; in experiment [1], 5 µM; with mCerulean3-BCL-W (mouse), 6 µM.

Source of the values: article PMC9020777.
